{"source": "the DeepSol protein solubility set"}
{"experiment": "soluble on expression in E. coli; label from the status in PepcDB or PDB records"}
{"sequence": "MNLLPYQFVGEVVRGFGRGGKELGCPTANMDGTVVNGLPEGLPVGVYFGTAKLDGKSYKMAMSIGWNPQYQNEKKTVELHLIDYSGSDFYGKTLSAVIIGFIREMKSFESLDELKSAIAMDIKVARRGSVEQGKL", "soluble on expression in E. coli": "not soluble"}
{"sequence": "MNLMLCCTPLQVLIARKIIELHPNEQFFGVMFGGVWDKKRTLYASKLAEVCSDSMNIDTGKDLKGFDFLKLMRQLKNKITHKGFDKVFLANLNSLWLQTYLSHVSFKELYTFDDGSDNIFPHPNLLREPGTFKYKLIKAFIGDKYSVNKLFKKIKKHYTVYPNYKNIVSNIEPISLWDNQIDCEIDGEVSFFIGQPLLNTKEENISLIKKLKDQIPFDYYFPHPAEDYRVDGVNYVESELIFEDYVFKHLSNKKIIIYTFFSSVAFNLLSHPNVEIRFIRTSIPRWQFCYDSFPDLGLTIYKEI", "soluble on expression in E. coli": "not soluble"}
{"sequence": "MNLRTQKFHMYFKQWIELYKEGAVRPVTYQKYQMSHKHLVTLAPDLHMDELKRRTYQELINEFAANHEKQTTLDFHHHLKAAILDALDEGILEQDPTRKVVIKGTLEHHHHHH", "soluble on expression in E. coli": "soluble"}
{"sequence": "MNLTHQDFNLFNREIFTFKQLKEQQTSAEIDALKQTYKQHWEKWKALNLAIAQGLPAELGITKPKIESWTNGWNLRSHFWAAYRSEQRQAENACLALLLNKKQFQVYLMFQHYKSEERTGSVVAYNQLLNRLEAWSQTIDCEGYYIWPQEEHELVDHLPLKDYLADEKQRKILEERIGNRSFQIGKLWFATEKLETIEEKSCQALQELAPLYNALSEK", "soluble on expression in E. coli": "not soluble"}
{"sequence": "MNLTIIEFESNVLRDNPLNDPYKRRVGIIYPKDYEGRPILIYLSGYLSSSLTQINYNPLGEDMVSKVERLSNEGKMKGSVIVLPDMFTKVGGNQYINSSAVGMYEDFLVKELIPFLKDKFKSDKIGIFGHSSGGYGALILGMKYPNTIKAIADHAGDAYFEYVYLPTFPRAIEQLRRFKTPEEWLENYWKKENKQHREDLNTLNVVGMSAFYSPNNEKIELPFDLETGEILEDVWKKWLEKDPVRMVDKYADNLKMLKFIFIDVGKKDEFNIQYGSRTLHKKLQKYGINHYYEEFNDGHLHTNYRYDISLSLLEKKLTSE", "soluble on expression in E. coli": "not soluble"}
{"sequence": "MNLTPGGNAPVPAQELRVRITSGGQVDASAFRLYADGKVQGDADMVFYGQPRNDDGTVSLVSEGQYSTFTVALNRLKPDVQKIAFTVTCDGGQTVSGLRNLSIDVEQGATGLVSGSVELSGRQEAALILGEFYRRNNDWKFRFVAQGFNGGLKPLAEHFGVNIADEPAPAAPTPPVVTPPPVETKISLSKVSLTKEKPAISLTKRDNFGEIRINLNWHRGSSKSGFAGMFGSKGIDLDLGAFVELQDGYKSVIQALGNAFGDYRDEPYVQLKGDDRTGDVSDGEWLHINGREWKHIREVLIYAFIYEGVPSWDKTDGVVTIHVPDQPPIETRLTEGENRRTLCAIARLVNENGAIKVERINQYFKGQDEMDRAFGWGFRWSAGSK", "soluble on expression in E. coli": "not soluble"}
{"sequence": "MNNENERFEGFFSRVVEQVRTLVLVPICQENKSENASPVCSVSSRVQEVLGLAQAIRLEVVYYETVNINIPRPATLFGTGKVKALTHYISEYDIELVIVDHFLTPVQQRNLEKLWNCKVIDRTALILEIFGDRARTKEGVLQVELAHLSYQKSRLVRSWTHLERQRGGHGFLGGPGETQIEADRRLLQEKIIRIRRELEKVIKTRALHRAKRKKTSHPIVALVGYTNTGKSTLFNRLSGANVLAKDMLFATLDPTLRKVVLPHGKTILLSDTVGFISHLPTHLIAAFRATLEEVVEADLILHVRDMSDLDHRAHGQDVLEVLADLGIDIDDTEHIIEVWNKIDILDEHALNVLQTSARTRLNPAVMVSALMSDGLDQLLTAIEKRVFGEMQSIECLLRPHEMSLISWFYENSGEIMQEGHNDGSVTIRAMLTSEAKKRLDHIKQTMN", "soluble on expression in E. coli": "not soluble"}
{"sequence": "MNNENMLSDNSTQTSQINETIDQPIIYILDTNILLHEPFAFLSFKEHDVVVPMTVLEELDSIKDRRKDVSRDARVAIRALEDTLRDASPEQVLAGVKLPQNDDQHPSGSLAIINDYALEKTAHTLSFNENDNRIINAALHIQKKTPNKKIVLVTKDINMRLKAKGAGLAHVEDYRTDQLIDDIQFLTKGYHKFEGDFWQQIQSVDSETEGRNTTHYVSRETVPSTYINEYLLDDSGTFAGKVTGWDDDKLAILDLGRERLLAKNAWGIHPKNIYQGMAMDALLDPTIDLVILTGPAGSGKTLLALASALEQVIERGLYDKIIVTRSTPEIAESIGFLPGTEEEKMAPWLAAITDSLEVLHQQDESMHGSLNYIMDKANIQFKSVNFMRGRSIQNALVLLDECQNLTAAQLKTIITRCGEGTKLVCSGNLAQIDSNYLTAVTSGLTYIVERFKDFPGSATVNLNGVVRSRLASFAEENL", "soluble on expression in E. coli": "soluble"}
{"sequence": "MNNFTMPDKKYFLFAARRADDQLILVVPKSGERFLMNEELLRRDYNVQLGDFLHCKINRSKELYDISKTKHTANISTVVNGDEAIIENLRADLVSSDELLLFQSQLFDDIRCWQSDQPIGRYYIKMRLFPTSREMSGRMIHYEVVKITGSVKSIELNKQQGNFQQNIDSGYSAASEKTESSAGFSQSPAAGLPSPQNLIYPAGSKKIVSQQGTQVVGPGCPLVKKEETPANKIMGTGFPKSTKREENVFGSELLQQKKNNEKPGSTVGKGFTTSQTIGEKQRAVVTSIDAKRPGTYYLWNLDSKTEGLLKSTTPLELGHQFAGIFVNQENGKCFCKEYIGEIERVLEGKVNDTNKVNLTVKLLDFQPAGVNRRRASGTAKYIGDVLEGNTEDTKLTIECIGKKVNIERRKFGEKDFVWMVTEIRNCSQYDQKIF", "soluble on expression in E. coli": "not soluble"}
{"sequence": "MNNHIEALSYYLGAFVDELTLLNVCDVVISPGSRSTPIALLMEQHEGMNTYLHVDERSAGFFALGIAKAKKRPVALLCTSGTAAANYYPAVCEAFHSRVPLIVLTADRPHELRDVGAPQAMNQINLYGTFVKQFTEMALPEASEAMYHYARLTTQRMIASACLAPQGPVHLNFPVREPLIPDFSLESLWDKGRGEYTGVVQQGNAVMPSEYVDSLVGRLSHMEKGLIICGDDSHSEIAAFATQLAEKTGYPILADPLSNIRSGHHDKTMVIDCYDTFLRNELLKETWKPDVLIRFGGMPVSKALTQFIKKQTKAVHIVVDESGQWRDPALVATEVVQASDIAFCSALIEKMPVMKKNDWFRMWQHINEKTKETLREMETYDTAFEGRVITDIVRVLPEGATLFASNSMPIRDTDSFFFTSDKNIQVMANRGVNGIDGIISTALGASMICDPLVLVIGDLSFYHDLNGLLAAKLHELNITIVVVNNDGGGIFSFLPQYEKKEHFESLFGTPIGLDYEHVVTMYGGSFSRVNGWEQFREEVQKGVTTEGLHVVEICTNRDENLTLHRTLWAKTQDVITTSLQGESK", "soluble on expression in E. coli": "soluble"}
{"sequence": "MNNIAAPDQSFNPAHVLSFDLETTSANPFEARIVTSALVRIDSSGAHPVELLADPGVEIPEAASKVHGISTEYAREHGEPHEAVLKRTVDEIYAAWEEGFTLVVYNAPYDLTVLRQLTGDFVVKGPVYDPYLIDRIMDRFRKGKRTLTDLCSVYGVRMDNAHEATSDALAAARIAWMQAKKRFKDDLAAYSHDELMEYQAVQYYELQKDMKKYLDGLGRDTSTVNFGWPMQNSR", "soluble on expression in E. coli": "not soluble"}
{"sequence": "MNNMKKYLSLCIMLLCLCSTVMAQQEKVVVKGVVTDEAKEPLIGVNVTVKDMPGLGSITDMNGHYSITMEPYRQLVFTYIGYESKEVMVKEQRTINVVMKESVTRAVDEVVITGTGVQRKLTQTGAITTVDVGELKRNPSSSIVNALAGNVPGIMARQTSGQPGKNISEFWIRGISTFGANSSAYVLVDGFERSMDEINIEDIETFTVLKDASATAIYGSKGANGVVLITTKRGKAGKIKIDAKVETTYNTRTVLQSSKTDLLMPA", "soluble on expression in E. coli": "not soluble"}
{"sequence": "MNNNVITRFAPSPTGFLHIGSARTALFNYLFARHHNGKFLLRIEDTDKERSTKEAVEAIFSGLKWLGLDWNGEVIFQSKRNNLYKEAALKLLQNGKAYYCFTRQEEIERQRQQALENKQHFIFNSEWRDKDPSIYPTDIKPVIRLKTPREGSITIHDTLQGEVVIENSHIDDMVLLRADGTATYMLAVVVDDHDMGITHIIRGDDHLTNTARQLAIYQAFGYAVPSMTHIPLIHGADGAKLSKRHGALGIEAYKDMGYLPESLCNYLLRLGWSHGDDEIISMTQAIDWFNLDSLGKSPSKLDFAKMNSLNAHYLRMLDNDSLTSKTVEILEQNYNTLLRHLPYREEFGGNTERSTAAYIDIREDASTGLTYKLPLAVELPKKFKISEQEIGYIKQAMPSLLVRSETLLELTRLAQIYLVDSPIIYSQDSKEIIENCDKNLIKQIIENLSELEQFDKESVQNKFKEIAAANDLKLNDIMKPVRALITGMTASPSIFEIAEILGKENILKRLKII", "soluble on expression in E. coli": "soluble"}
